pKd: −log10 of the molar value.
Target: Rab6B^Q72L, GTPase domain (residues 8-176), constitutively active mutant (mouse) (UniProt P61294)
Assay: ITC; MicroCal PEAQ-ITC, 25 °C, 50 mM Tris pH 7.5, 100 mM NaCl, 2 mM MgCl2; typically one protein (400 μM) in the syringe into its binding protein (40 μM) in the cell

Rab6B^Q72L, GTPase domain (residues 8-176), constitutively active mutant (mouse), sequence (P61294 8-176 Q72L): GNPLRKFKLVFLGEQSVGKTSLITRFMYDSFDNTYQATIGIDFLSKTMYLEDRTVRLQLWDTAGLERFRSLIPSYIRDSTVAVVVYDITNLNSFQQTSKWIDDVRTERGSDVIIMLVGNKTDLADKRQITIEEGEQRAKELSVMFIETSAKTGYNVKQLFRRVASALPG

pKd: 5.10
Substance: ELKS2_RBD, the region of ELKS2 corresponding to ELKS1 residues 849-922 (domain or fragment)

Reference: article PMC10267580
